Experimental data published in the nanobody polyreactivity screen of Harvey et al. (2022).

Test: yeast display, Sf9 membrane polyspecificity reagent, FACS + sequencing; frameworks hold sequencing errors
In short: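 Galactose induction of a Saccharomyces cerevisiae BJ5465 synthetic nanobody display library ran 36–48 hours. The cells were then stained for 1 hour at 4 °C with 10% biotinylated, detergent-solubilized Sf9 membrane reagent, pulled down on streptavidin microbeads and FACS-sorted into low and high (top ~1%) gates on expression and reagent-binding fluorescence. Labels for polyreactivity follow the gate of origin.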

| Sequence | polyreactivity (PSR sort gate) |
| --- | --- |
| QVQLVESGGGLVQAGGSLRLSCAASGMICGVYAMGWYRQAPGKERELVAAIDGNGSSTYYADSVKGRFTISRDNAKNTVYLQMNSLKPEDTAVYYCAAGYWSYLYYWYDFDYWGQGTQVTVSS | low polyreactivity |
| QVQLVESGGGLVQAGGSLRLSCAASGMIFSDYSMGWYRQATGKERELVATITRSVRTSYADSVKGRFTISSDNAKNTVYLQMNSLKPEDTAVYYCNADVVGAVIAFDYWGQGTQVTVSS | low polyreactivity |
| QVQLVESGGGLVQAGGSLRLSCAASGMTFSKYVMGWYRQAPGKERELVAAITWSGGRTYYADSVKGRFTISRDNAKNTVYLQMNSLKPEDTAVYYCNSKLKGLGYEYDYWGQGTQVTVSS | high polyreactivity |
| QVQLVESGGGLVQAGGSLRLSCAASGNAMGWYRQAPGKERDLVAAITRRGGSTYYADSVKGRFTISRDNAKNTVYLQMNSLKPEDTAVYYCAADNPSYNLWYGYWGQGTQVTVSS | low polyreactivity |
| QVQLVESGGGLVQAGGSLRLSCAASGNAMGWYRQAPGKERELVAAITRRGGSTYYADSVKGRFTISRDNAKNTVYLQMNSLKPEDTAVYYCAAENPSYNLCYGYWGQGTQVTVSS | low polyreactivity |
| QVQLVESGGGLVQAGGSLRLSCAASGNHLRSLSLGWNRQAPGKQRELVAAITSSGASTYYADSVKGRFTNSRDNAKNSVYLQMNSLKPEDSAVYYCAAYLFRRYDYWGQGTQVSVSS | low polyreactivity |
| QVQLVESGGGLVQAGGSLRLSCAASGNIFDLYAMGWYRQAPGKERELVAAITRSSSRTYYADSVKGRFTISRDNAKNTVYLQMNSLKPEDTAVYYCNKRWITSYYTRYDYWGQGTQVTVSS | high polyreactivity |
| QVQLVESGGGLVQAGGSLRLSCAASGNIFDPYAMGWYIQAPGKERELVAVINASGDSTYYADSVKGRFTISRDNAKNTVYLQMNSLKPEDTAVYYCAADHRGEYDYWGQGTQVTVSS | low polyreactivity |
| QVQLVESGGGLVQAGGSLRLSCAASGNIFEYYAMGWYRQAPGKERELVATITSGGSTNYADSVKGRFTISRDNAKNTVYLQMNSLKPEDTAVYYCNADIISVSVYYFIVEYDYWGQGTQVTVSS | low polyreactivity |
| QVQLVESGGGLVQAGGSLRLSCAASGNIFFGNTMGWYRQAPGKERELVAAISRSGGSTYYADSVKGRFTISRDNAKNTVYLQMNSLKPEDTAVYYCAAEYYGWPYDSWGQGTQVTVSS | high polyreactivity |
| QVQLVESGGGLVQAGGSLRLSCAASGNIFFSNAMGWYRQAPGKERELVASISQSGGSTYYADSVKGRFTISRDNAKNTVYLQMNSLKPEDTAVFYCAATQVRRGPAWGRDYWGQGTQVTVSS | low polyreactivity |
| QVQLVESGGGLVQAGGSLRLSCAASGNIFFTNAMGWYRQAPGKERELVATISFRGTSTYYADSVKGRFTISRDNAKKTVYLQMNSLKPEDTAVYYCAARYSVFHRARVNLLGWGLYYWGQGTQVTVSS | low polyreactivity |
| QVQLVESGGGLVQAGGSLRLSCAASGNIFGDYAMGWYRQAPGKERELVAAITQTGGNTYYADSVKGRFTISRDNAKNTVYLQMNSLKPEDTAVYYCNKVSVVYSRSKGFYYTYLKYEYWGQGTQVTVSS | low polyreactivity |
| QVQLVESGGGLVQAGGSLRLSCAASGNIFGENAMGWYRQAPGKERELVAAITRIDGNTYYADSVKGRVTISRDNAKNTVYLQMNSLKPEDTAVYYCATDEPVGRYQHNYYWGQGTQVTVSS | low polyreactivity |
| QVQLVESGGGLVQAGGSLRLSCAASGNIFGFNAMGWYRQAPGKERELVAAINSGGSTYYADSVKGRFTISRDNAKNTLYLQMNSLKPEDTAVYYCAAVRGKYRFGFWGQGTQVTVSS | high polyreactivity |
| QVQLVESGGGLVQAGGSLRLSCAASGNIFGLYAMGWYRQAPGTERELVAAISFSDTSTYYADSVKGRYTISRDNAKNTVYLQMNSLKPEDTAVYYCAAELWFNNGEHNYWGQGTQVTVSS | high polyreactivity |

| Sequence | polyreactivity (PSR sort gate) |
| --- | --- |
| QVQLVESGGGLVQAGGSLRLSCAASGNIFGVNAMGWYRQAPGKERELVAAITCSDSSTNYADSVKGRFTISRDNAKNTVYLQMNSLKPEDTAVYYCATRVWRSAQSRWYGYDYWGQGTQVTVSS | high polyreactivity |
| QVQLVESGGGLVQAGGSLRLSCAASGNIFGYYAMGWYRQAPGKERELVAAITTTGGSTYYADSVKGRFTISRDNAKNTVYLQMNSLKPEDTAVYYCAAETGYWYYYWGQGTQVTVSS | high polyreactivity |
| QVQLVESGGGLVQAGGSLRLSCAASGNIFHVNAMGWYRQAPGKERELVAGITWSGGSTYYADSVKGRFTISRDNAKNTVYLQMNSLKPEDTAVYYCAATGWYFGYGRYGYWVQGTQVTVSS | high polyreactivity |
| QVQLVESGGGLVQAGGSLRLSCAASGNIFIHYAMGWYRQAPGKERELVAAITWSGGSTYYADSVKGRFTISRDNAKNTVYLQMNSLTPEDTAVSYCNSVSKYGPADGYGDYWGQGTQVTVSS | high polyreactivity |
| QVQLVESGGGLVQAGGSLRLSCAASGNIFKHYAMGWYRQAPGKERELVAAITWSGGSTHYADSVKGLFTISRDNAKNTVYLQMNSLKPEDTAVYYCAARGWWPGTKWTRYDYWGQGTQVTVSS | high polyreactivity |
| QVQLVESGGGLVQAGGSLRLSCAASGNIFKVYVMGWYRQAPGKERELVAAISGSGGSTYYADSVKGRFTISRDNAKNTVYLQMNSLKPEDTAVYYCNKVFKVTAARSFGYWGQGTQVTVSS | low polyreactivity |
| QVQLVESGGGLVQAGGSLRLSCAASGNIFKYYAMGWYRQAPGKERELVAAISWGGSRTYYADSVKGRFTISRDNAKNTVYFQMNILKPEDSAVYYCAAAPRYSWTSVPRYDYWGLGTQVTVSS | high polyreactivity |
| QVQLVESGGGLVQAGGSLRLSCAASGNIFLFYVMGWYRQAPVKERELVAAITLSGTNTYYADSVKGRFTISRDNAKNNVYLQMNSLKPEDTAVYYCNADWWSDGYDYWGQRTQVTVSS | low polyreactivity |
| QVQLVESGGGLVQAGGSLRLSCAASGNIFLRYAMGWYRQAPGKERELVASITRSGASTYYAVSVKGRFTISRDNAKNTVYLQMNSLKPEDTAVYYCAASYYFRYYRGGYWGQGTQVTVSS | high polyreactivity |
| QVQLVESGGGLVQAGGSLRLSCAASGNIFLYYAMGWSRQAPGKERELVADIDSSGASTYYADSVKGRFTISRDNAKNNVYLQMNSLKPEDTAVYYCAAEFHWWYAGYDYGYWGQGTQVTVSS | low polyreactivity |
| QVQLVESGGGLVQAGGSLRLSCAASGNIFLYYAMGWYRPAPGKERELVADIDSSGAATYYADSVKGRFTISRDYAKNTVYLQMNSLKPEDTAVYYCAAEFHWWYAGYDYGYWGQGTQVTVSS | low polyreactivity |
| QVQLVESGGGLVQAGGSLRLSCAASGNIFLYYTMGWYRQAPGKERELVAGITSGGSTYYADSVKGRFTISRDNAKNTVSLQMNSLKPEDTAVYYCAATYYPNFYRYYYWGQGTQVTVSS | low polyreactivity |
| QVQLVESGGGLVQAGGSLRLSCAASGNIFNDNAKGLYRKAPVKERELVAAISSGGSTNYADSVKGRFTISRDYAKNTVYLQMNSLKPEDTAVYYCAAELTLIYWWSLDYWGQGTQVTVSS | low polyreactivity |
| QVQLVESGGGLVQAGGSLRLSCAASGNIFPGYAMGWYRQAPGKERELVAGISGSGGRTYYADSVKGRFTISRDNAKNTVYLQMNSLKTEDTAVYYCAAAFKYYYRFEYDYWGQGTQVTVSS | low polyreactivity |
| QVQLVESGGGLVQAGGSLRLSCAASGNIFRNNAMGWYRQAPGKERELVAAISYSGGRTYYADSVKGRFTISRDNAKNTVYLQMNSLKPEDTAVYYCAVTYGRNADDYEYWGQGTQVTVSS | high polyreactivity |
| QVQLVESGGGLVQAGGSLRLSCAASGNIFRYNAMGWYRQAPGKERELVAAISSGGSTYYADSVKGRFTISRDNAKNTVYLQMNSLKPEDTAVYYCNRRRWLWQTARGDYWGQGTQVTVSS | high polyreactivity |
